Reference: IntAct's records for PubMed 27615052

B1: E3 ubiquitin-protein ligase LRSAM1 (Homo sapiens), Q6UWE0 (parent)
chain: MPLFFRKRKPSEEARKRLEYQMCLAKEAGADDILDISKCELSEIPFGAFATCKVLQKKVLIVHTNHLTSLLPKSCSLLSLATIKVLDLHDNQLTALPDDLGQLTALQVLNVERNQLMQLPRSIGNLTQLQTLNVKDNKLKELPDTVGELRSLRTLNISGNEIQRLPQMLAHVRTLEMLSLDASAMVYPPREVCGAGTAAILQFLCKESGLEYYPPSQYLLPILEQDGIENSRDSPDGPTDRFSREELEWQNRFSDYEKRKEQKMLEKLEFERRLELGQREHTQLLQQSSSQKDEILQTVKEEQSRLEQGLSEHQRHLNAERQRLQEQLKQTEQNISSRIQKLLQDNQRQKKSSEILKSLENERIRMEQLMSITQEETESLRRRDVASAMQQMLTESCKNRLIQMAYESQRQNLVQQACSSMAEMDERFQQILSWQQMDQNKAISQILQESAMQKAAFEALQVKKDLMHRQIRSQIKLIETELLQLTQLELKRKSLDTESLQEMISEQRWALSSLLQQLLKEKQQREEELREILTELEAKSETRQENYWLIQYQRLLNQKPLSLKLQEEGMERQLVALLEELSAEHYLPIFAHHRLSLDLLSQMSPGDLAKVGVSEAGLQHEILRRVQELLDAARIQPELKPPMGEVVTPTAPQEPPESVRPSAPPAELEVQASECVVCLEREAQMIFLNCGHVCCCQQCCQPLRTCPLCRQDIAQRLRIYHSS

Variants of: B1
Conditions: with G3BP1, Q13283
Sequence of G3BP1, Q13283 (Q13283 whole entry, looked up): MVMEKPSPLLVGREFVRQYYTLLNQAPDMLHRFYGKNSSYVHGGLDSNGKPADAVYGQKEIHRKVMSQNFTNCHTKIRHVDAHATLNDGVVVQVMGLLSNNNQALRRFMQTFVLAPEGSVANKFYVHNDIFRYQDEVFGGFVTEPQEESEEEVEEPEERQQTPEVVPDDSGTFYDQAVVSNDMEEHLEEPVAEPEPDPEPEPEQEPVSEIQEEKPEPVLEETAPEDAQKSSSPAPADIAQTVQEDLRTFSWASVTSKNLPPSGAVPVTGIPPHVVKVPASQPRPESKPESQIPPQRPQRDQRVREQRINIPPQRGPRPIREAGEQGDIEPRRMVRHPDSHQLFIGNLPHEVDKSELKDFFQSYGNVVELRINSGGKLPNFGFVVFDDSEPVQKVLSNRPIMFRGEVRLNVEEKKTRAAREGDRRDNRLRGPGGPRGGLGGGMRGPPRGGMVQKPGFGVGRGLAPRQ

| effect of a mutation on the interaction | Variant |
| --- | --- |
| disrupting interaction strength | C694R |

Variants of: B1
Conditions: with fus_mouse Fus

| effect of a mutation on the interaction | Variant |
| --- | --- |
| disrupting interaction strength | C694R |
